Test results: paper PMC7280208, “Integral approach to biomacromolecular structure by analytical-ultracentrifugation and small-angle scattering” (Communications Biology, 2020)

Target: T1, PUB domain of peptide:N-glycanase (UniProt Q9JI78 1-119)
T1 construct: PUB domain of peptide:N-glycanase (PNGase); molecular weight 12.5 kDa as printed in the methods; PDB 2D5U is, as I recall, the mouse protein; The supplement's 1.34 mg/mL for 100 µM implies 13.4 kDa, not the 12.5 kDa of the methods; also called PNGase-PUB; component B; source: purified, dialyzed in 10 mM sodium phosphate buffer (pH 7.0) or PBS
T1 sequence: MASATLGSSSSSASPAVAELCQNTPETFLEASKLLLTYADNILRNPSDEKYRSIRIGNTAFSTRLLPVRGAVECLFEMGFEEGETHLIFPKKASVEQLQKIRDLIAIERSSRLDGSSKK
Assay: AUC; sedimentation equilibrium (SE-AUC) of the mixture in 10 mM sodium phosphate buffer (pH 7.0), 25 °C; [hHR23b-UBL] = [PNGase-PUB] = 100, 75 and 50 µM; 20000, 30000 and 35000 rpm; absorbance optics; global fit with the association-dissociation equilibrium model A + B = AB (eq. 7, SEDPHAT)
Conditions: both partners purified

B1: ubiquitin-like domain of the proteasome shuttle factor hHR23b (domain or fragment)
chain: not shown
notes: ubiquitin-like (UBL) domain of hHR23b; molecular weight 9.5 kDa as printed; also called hHR23b-UBL; component A; source: purified, dialyzed in 10 mM sodium phosphate buffer (pH 7.0) or PBS
B1 gave a Kd of 227 ± 28 µM.
